Assay: soluble on expression in E. coli; label from the status in PepcDB or PDB records

| Sequence | soluble on expression in E. coli |
| --- | --- |
| MAKRIQFSTVGGPEVLEYVDFEPEAPGPQAVVVRNKAIGLNFIDTYYRSGLYPAPFLPSGLGAEGAGVVEAVGDEVTRFKVGDRVAYGTGPLGAYSEVHVLPEANLVKLADSVSFEQAAALMLKGLTVQYLLRQTYQVKPGEIILFHAAAGGVGSLACQWAKALGAKLIGTVSSPEKAAHAKALGAWETIDYSHEDVAKRVLELTDGKKCPVVYDGVGQDTWLTSLDSVAPRGLVVSFGNASGPVSGVNLGILAQKDSVYVTRPTLGSYANNAQNLQTMADELFDMLASGKLKVDGIEQYALKDAAKAQIELSARRTTGSTILIP | soluble |
| MDAELFPRTRAETAPGAVHLPDWLSPGQQRELLDACREWARPPAGLRTVRTPGGGTMTARQVCLGRHWYPYGYAATAVDGDGAPVKPFPARLDGLARRAVTDALGAEAVAPAPYDIALINFYDADARMGMHRDADERTDAPVVSLSLGDTCVFRFGNPETRTRPYTDTELRSGDLFVFGGPSRLAYHGVPRVHPGTAPPELGLRGRLNITLRVSGFLEHHHHHH | not soluble |
| MGFHPIELRIQILGLSAFGVDSKEIAAALDVPVRSVQRIIQRAKERGFDPATDPRVKMEYVEDAERSGRPKKGSKVMAAKSQAGSTSGSESVVAAGSEVGDGNRNSMPEAQA | not soluble |
| MRMFSVQPIAFVHNERKEIKDDEWGEVRSRITLTEMYAEKSIQGIEDFSHIEVVFYFHKVTDEQIQYFARHPRNNKDYPEVGIFAQRGKNRPNRIGVTIVKVIKREGKSIIVEGLDAIDGTPILDIKPIMKEFMPTEEIHQPKWATDIMRQYWKGNVVKLEHHHHHH | soluble |
| GATITHQEKLLTVDTTAHPFLKALGGHEGTDIFPLFMDPYNGLMVMRASFAPGLTLPLHFHTGTVHMYTISGCWYYTEYPGQKQTAGCYLYEPGGSIHQFNTPRDNEGQTEVIFMLSGCNVNFTQDGTYLGLSDAGVIKNWVDRAIREQDNGLRYIAAAVPTYAA | soluble |
| MSLSIRYIVKTDVSETFEIIKAGQVGSNIVFSEIRTFDFGELATLACEKFYFRSSNRAALFVNINNFHGETEVTIISTGSSNGFFTGIDWGAAFDYMHSVVADLKRVAIREVKMEKQEEGHHHHHH | soluble |
| IKDPQTGAPVPLRALINNVSGYVIKTEMYTEVKNAKGEWVFKSLGKPGSMHLRPIATPYPVKEWLQPKRYKAHLMGTTYVYDFPELFRQASSSQWKNFSADVKLTDDFFISNELIEDENGELTEVEREPGANAIGMVAFKITVKTPEYPRGRQFVVVANDITFKIGSFGPQEDEFFNKVTEYARKRGIPRIYLAANSGARIGMAEEIVPLFQVAWNDAANPDKGFQYLYLTSEGMETLKKFDKENSVLTERTVINGEERFVIKTIIGSEDGLGVECLRGSGLIAGATSRAYHDIFTITLVTCRSVGIGAYLVRLGQRAIQVEGQPIILTGAPAINKMLGREVYTSNLQLGGTQIMYNNGVSHLTAVDDLAGVEKIVEWMSYVPAKRNMPVPILETKDTWDRPVDFTPTNDETYDVRWMIEGRETESGFEYGLFDKGSFFETLSGWAKGVVVGRARLGGIPLGVIGVETRTVENLIPADPANPNSAETLIQEPGQVWHPNSAFKTAQAINDFNNGEQLPMMILANWRGFSGGQRDMFNEVLKYGSFIVDALVDYKQPIIIYIPPTGELRGGSWVVVDPTINADQMEMYADVNARAGVLEPQGMVGIKFRREKLLDTMNRLDDKYRELRSQLSNKSLAPEVHQQISKQLADRERELLPIYGQISLQFADLHDRSSRMVAKGVISKELEWTEARRFFFWRLRRRLNEEYLIKRLSHQVGEASRLEKIARIRSWYPASVDHEDDRQVATWIEENYKTLDDKLKGLKLESFAQDLAKKIRSDHDNAIDGLSEVIKMLSTDDKEKLLKTLK | soluble |
| MGSDKIHHHHHHMADNVKANKMNSQADDDIGFGIYTDIADLPMTGCPSYIEEGIGGVCESGTATIVVFDVPFQIVPNVVITLMPWQLVFIKEISEDFRITFFKISKDMFSETLSTLWRPASGFLLYMRKHIVSIPDGELIGRFLAYCNLLVYRMKHTPQNCRQESIMQLLRVYFWDVYTVYINDPQAEKSLKFTRKDEYVYQFVRLIIEDHSPDKDVAYFAQKLGISPKRLTNLIRSISGQSAREWIVYYTILEIKSLLRESSLDIKSIAARVNFPDQTTLSRYFRHYTGVTPSQYRKNIYF | not soluble |
| VADATTLAVVGPGVMAKTITEACIAERPGITTIKIKGRSERGINAFATWALEKFPEIEVVAVGSEEDVVKDADIVIAATTTDAAGSSAFPYFKKEWLKPGALLLLPAAGRFDDAYLLDDARLVVDYMGLYEAWAEEYGPQAYQLLGIPGTHWYDLALQGKLDLAKISQIGDICSGKLPGRTNDEEIILYSVGG | not soluble |
| MQFEHLVQVNDRTLVDLPVLDRLQLWEGLVCRAREPQYFVVGLERFEILVDDGDRLHRRLYLPGLVVEDEVVLKAPDSAHYSIKPSAEVAGGSLDMTIEEPEPGSLFVRFAYCTRYLQPLGDELPYDAFVKQAYIAMDVETIATIRDRFGASAASGS | soluble |
| MGSDKIHHHHHHMNQSKTAIVIDSSANIAPEIVRKYHFTIVNQPVMFGKHVYHENMDIDSDEFYRMLKLEKYHPTASQIPMKEMQEVFSNLAQAGYEAALCIGLSGGLSGFINSVSASVPAIKDLQVYPYDSGSILAGVEKVAILASHLLDNGVDIHEVLHQMRKYRRQTQAYIAVNNIKELQNMGNISNRTSLVGSFFGMRPILTINHQGRLEMVGKERQMKNAMEAIEEIFDKQLVDHTNLVVTVIDANDVDRSMQWQSTLKAKYPGMQVESQQIGPYVGTYTGSKAIGLIWSPKL | not soluble |
| MATFVPFVTCLDTGFWNEVNKKKLNDWKLDETPKCISSQLSLHQTEGFKCHLSLSYDSLSSLESTTGLSMSGTLLLYNTIESFKMVDKSDLIRSEAEKIWESITTRKWLQNPRLLSQFFIIAFADLKKFKYYYWTCVPALVYPSEIKQEITPLSSLGADHKILFDFYRKNNFPIFLYSKQSSKMLELSELENNTNPDEICVVVADPSPVAYSAGWMVRNVLAAVAHLHPTWKHCHIISLRSADSIGIKYTWTLPSAECSADGAQNAVPKAVGWERNANDKLQPISVDLSKEFDPKILMERSVDLNLSLIKWRLHPDIQLERYSQLKVLILGAGTLGCNIARCLIGWGVRHISFLDNSTVSYNNPVRQSLSEFEDARLGRGKAETAQAAIQRIFPSIQATAHRLTVPMPGHSIDEKDVPELEKDIAKLEQLVKDHDVVFLALDSREARWLPTVLASRHKKIAISVAIGFDTYVIIRHGIGSRSESVSDVSSSDSVPYSQLSCYFCSDVTAPGNSTFDRTLDQQCTVARPGTSMIASGIAVELLSSVLQYPDPLKTPASHDDNTTVLGAAPHQIRGFLGRFQQILPSVKRFDQCVACGDAIAAQFQQNGWKFVRDVMNSPGRLEEVTGLDELQNSVNAIDIDFEDDEDF | soluble |
| MSRTVMCRKYHEELPGLDRPPYPGAKGEDIYNNVSRKAWDEWQKHQTMLINERRLNMMNAEDRKFLQQEMDKFLSGEDYAKADGYVPPSA | soluble |
| MESLNEYMDKIINRLKAVNEKDELVDEGMRKLQKCQEKIMKTRIDAQKHIDERHEQQSFEQQLLNKNMFETEQLEEKLKRLDDENKIGNEREFNKKLEAISAKWTDDVNLLKTTPNEPNDGNRKKLSNLSNILV | not soluble |
| MQSYTNRICAVCGDTPAKIHYGVLACFGCKGFFRRAVKDGRNKYVCRFEKNCEVTKFERNACRYCRFRKCLLVGMNPDYVRPDREKSKKGKTVLSKKKSVSRSLSYRLADPSDWTSFLSPSSRKQLSEIGKLAETCSTSTNFDGIGNFSLKSLIADRSLARKTGDSEAMDCSNSPRQLNEQFLGIERIVQCVDYIDRFLVMLEEEHCRKFSVEDKSALISDTMIHLLLFESTSRFVAKGAPGLEDLKLSLAQLPICTTHLTQKIADVFETYLRKPPSIIEYSVLKAYIVLSAESTVLSNSLNESLSLARENLSELLFKVIKHSRNKTSISAANSLSTILHFVYESRNLASRIRQSQQPFFVRDSDPKIPFHKILTDIINPEVSDLLLTTANCRKLSTQMGSSLSSVPPVPPPSDTVPLFHFSPPSLSPCQISAPPPPQQQYTDYSQMPSTSSYPANSSPFQSPYRPNSLSSFPKIPLEMTKSIEEFLRPNGMTTDEMNKPLEKNWADGFRLTPVFNKDIVSQFFPELSNINQHHPF | not soluble |
| MRKIIVGSRKSKLALTQTNWFIDQLKALGLPYEFEVKEIVTKGDVILDVTLSKVGGKGLFVKEIEHALLTKEIDMAVHSMKDMPAVLPEGLMIGCTPKRVDPRDAFISKSGASYKELAEGAILGTSSLRRSAQLLAARPDLQVKWIRGNIDTRLRKLKEEDYDAIILATAGLQRMGWDNEVITEHLDETLCVPAVGQGALAIECREDDKDLLQLLAHINDAVTEKTVAAERVFLHKLEGGCQVPIAGYATITENDAIELTALVGSMDGSVLLKETVVGTDPEKVGLEAADRLIKQGAKELILAANKGQQ | not soluble |
| MTGKILVIGSTGTIGTPLVKALVARGESVKAASRSGKPTNGAEGVRFDYTDHATFADAFDGVDRLFLMLAGGRLDTIDALTPVVEEAARRKVKIVFLSVLGVDADDSIPYRQIELKIIASGTPYVILRPNWFADNFHSYWKAGIEHGQIAVPGGEGKSSFIDVRDIADSAAAALTSDAFNGKAFNLTGPQAFGYAEAAALISQAIGKPVSYSAVSDDVFIGILTGAGVPQDYASFLASIFYPVREGWTAVVTGDAETLTGHAPRSLETYIADNLDRLKG | not soluble |
| MKMKHMKPYTTMKTVLSTLAIALAFGPLHNAQACTRILYETGNQSYISGRSMDWADPSAATALWVFPKGMKRDGTVGDNPIKWSAKYGSIIVSFYDAGTADGMNEKGLVANMLYLKEAKWGDATKAGKPTLTAGAWAQYFLDNYATVEEAVTAMANPPFTIIAPSLPNGDAAALHLSISDVNGDSAIFEYIDGKLVIHHGSQYKVMTNSPTFDQQLALNTYWQQIGGSKFLPGTINAADRFVRASYALSASPKYRDNDLALASVFSQIRAVSVPLGITDPDRPNLAMTLWRTFADHTAKIYYFESAVFPAVSWLDMSKVDLTEGAAPKVVRVERGQPLAGELSAALKPAEPFKWLGAE | not soluble |
| MGSDKIHHHHHHMAIACVMTRASCGVQAPKVIVEVHLSNGLPGFSLVGLPEASVKEAKERVRSALINAGFEFPMQRITVNLAPADLPKQGGRYDLPIAIGILAASEQIPKKAIADAEFVGELALTGQVRPCVGLLPAIIAARDDGHPMFMPLDNRHEAELVGYQQCHFVADLQHLAAFIHGQGQLPKVDNQTQWITESAVDPKLCLSDVIGQYQAKQGLEIAAAGGHNLLLMGPPGTGKSMLASRIIPLLPNLSYQEAIEVAAIHSVAGLNTPSHNFLQRPFRSPHHTCSAISLVGGGSVPKPGEISLAHRGILFLDELPEFPRRVLDCLREPMETGEVVISRAAAKLTFASRFQLIAAMNPSPCGNVDKARSTPDQIQRYLSRLSGPFLDRFDLTVDVPKLPSGALSQANIQAETSISVAARVRKAREKQLERSGVLNNELSPKALKKVANLDQANLIFLEQSVQLLGLSVRSFHKIQRVACTIADLQEEAKVDRAHLAQALGYRAMDRLIARLRQQ | not soluble |
| MSTENAHLQKEDIVIESWLHKKGEHIRNWRPRYFILFRDGTLLGFRSKPKEDQPLPEPLNNFMIRDAATVCLDKPRPNMFIVRCLQWTTVIERTFYADSADFRQMWIEAIQAVSSHNRLKENAGNTSMQEEDTNGNPSGESDVNMDATSTRSDNDFESTVMNIDEPEEVPRKNTVTMDDFDFLKVLGQGTFGKVILCREKSSDKLYAIKIIRKEMVVDRSEVAHTLTENRVLYACVHPFLTLLKYSFQAQYHICFVMEFANGGELFTHLQRCKTFSEARTRFYGSEIILALGYLHHRNIVYRDMKLENLLLDRDGHIKITDFGLCKEEIKYGDKTSTFCGTPEYLAPEVIEDIDYDRSVDWWGVGVVMYEMMCGRLPFSAKENGKLFELITTCDLKFPNRLSPEAVTLLSGLLERVPAKRLGAGPDDAREVSRAEFFKDVDWEATLRKEVEPPFKPNVMSETDTSFFDRVRYVSILLKVSEAI | not soluble |

Source: the DeepSol protein solubility set
